From the DeepSol protein solubility set

Test: soluble on expression in E. coli; label from the status in PepcDB or PDB records

Sequence	soluble on expression in E. coli
MTTRLIVKNLPSTCTEQQLRKFFEKYGQISDASLKYTKEGKFRGFAFVGFLDEGSASNALAKSNQTFFNSKKLTVEECRPFGDANKPRAWSKYAKDSSAYKRTHGEKEEANPGKSDETEEPAPKKQKDDAKFDQFLEAKGVVVEKEVKLSKDKSAEAKKLMAELMDGIGGDTSLSLIFSGLPSSAKGKNIKEWLNPIRVKAMKIARNEDVAAAFVTFNRPPDVRRALQKDGQFLGGFKIGIEKIETPEPEHEVIEEHGASLESRDKEEETVREKILETGRLFLRNLPYATKEDDLQFLFKKYGEVSEVQVVIDKKTGACKGFAIVEFVFPEAAVAAYSALDGYVFKGRMMHILPGDEKRTKEGEEESEVVPDDPDNPLKAEAKKEKKKKSFKEEKDEQKKASAGKTAHSWNALFLGANAIADTLAQRLNVKKSDLLTSDQGESAGVRLALAETRLVRETRDFFLENGVKLDAFSKPAEKRSDTVMLAKNLPAGVESEELQRMFEKFGDCTKVLMPTEGGVSALVIMGNPVDAKKAFRALAYSRFRSQPLYLEWAPYDVMGATAPPAEDKTAEVADKPKLSKREMTYEEKRKERKNRQQGITEEEKDDGEVIEEEEKPKEVEAEDKKKSSKKQSEKEIESGSTLFVKNLAFDTTDGSLEFLFRKRYGDLVKSAQISKKLNPAEPTKPLSMGFGFVQFYTAFDAKTALKDMQGELLDGHSLELKISHRENADKGALKRKEVKQKEQGECTKLLVRNLPFEASVKEVETLFETFGAVKTIRIPKKPGQKQQHRGFGFVDFISADEAHRAFDSLVHSTHLYGRRLVLEWAKDDETVEELREKTAEKFAGNKKGVKKSKAQTEEFQQQLQIADDEKD	not soluble
MQCALYDAGRCRSCQWITQPIPEQLSAKTADLKNLLADFPVEEWCAPVSGPEQGFRNKAKMVVSGSVEKTLLGMLHRDGTPEDLCDCPLYPASFAPVFAALKPFIARAGLTPYNVARKRGELKYILLTESQSDGGMMLRFVLRSDTKLAQLRKALPWLHEQLPQLKVITVNIQPVHMAIMEGETEIYLTEQQALAERFNDVPLWIRPQSFFQTNPAVASQLYATARDWVRQLPVKHMWDLFCGVGGFGLHCATPDMQLTGIEIAPEAIACAKQSAAELGLTRLQFQALDSTQFATAQGEVPELVLVNPPRRGIGKPLCDYLSTMAPRFIIYSSCNAQTMAKDIRELPGYRIERVQLFDMFPHTAHYEVLTLLVKQ	not soluble
TSPLYTGAVPRANRIVQQLVEAGADLANIRTMFRNMLRGEEMILSRAEQNVFLQHFPDMLPCGIDRNSELAIALREALRRADSQQAARAPARTPPRSSVRTPERSPAPRTATESSSGSNQRSLLGRFAGLMTSNQRRPSSASNASTSQRPVDRNPPRINLMPTGANRVAMRNRGNNEADAALQALAQNGINMEDLRAALEAYIVWLRPIPLDIANALEGVGITPRFDNPEEAKVDNPLMNLSSALKRRLDA	not soluble
MVGRELFKPVPSSTKPQSNASILARFRTAKSRHQPDRRGAQISANDRKSFVTRETPRTDSCFVSERLAMDDLVQIARCAGGKSVLRLTGVCLLTLLFAIASPAHSTHRPVDDLADVDLQLILAVDVSPSMSKVEQKVQRDGYVGAFRHADIARALKSGERGRIAVLYLEWAGPRQQTVVMPWTIVESLDDALILADRLAALPLTEGRGTSISGALSAAHALFAKSGLRSPRRVIDVSGDGPNNAGLPLQLVHDALTTGGVTINGLAISLRAADTLDSFGPHFIELYYESCVIGGSNAFVVTVENTADFANAIRKKLVNEIAGLSAKVQPATYRSHSRPVVLEHHHHHH	soluble
MSVKPVDLNKLRSTHENLYETVVAISKKAREIQEEERAELEERLLPYKEMIRNPASESESEKVFPEQIAISVAFECREKPTQQALAQYLDHQYDYVLEKSPETKVAQNEDEDESDRD	not soluble
MKPKDFCTAENWAENLSALGYLAGWRFVRMLPLPIARRVFDLGADLASKSGKGMGQLRANLARVVGAENVTQALVKQATRSYARYWLEAFRLPAIARDPELLARLRKGTVGLDLLDESLAAGKGVVLTLPHSGNWDMAGAFLISHHGQFTTVAERVKPERLFEAFVEFRESLGFEVLPLTGGERPPFEKLKERLTSGGIVCLLGERDLRHSGVETTFFGEKTSMPAGPAQLAIETGAALHVVHPWFDDDGWGLSVSDAVTVDNLSDTVQRIAHLFMANITAHPADWHMLQPLWFGDLDPERLKRSREQTNVHKPVALQEDN	not soluble
SMTIGRAKVYATLSKIFYHLFYDEAIPKDCREIIEKFGEIDFNLRSVLVRELRGSVLIKDMPQSLAEVYESVMKDFYERYGFQASELHADHIAVELAFMSKLVEREISLAQQMKEEELYKIRAAQHRFIKAHLQPLVKNLPSAPLLNFVRDFVREDAKYLYSSLVGEKNEGADNN	soluble
SEEASTGTMVLLWAGGFQKVGGEQVSPLTGEVTRHRDRNIPYNLPVPSHPSNWVPLAAEVGPDSCDCGGPAPGLLLLLTRPHDPQFTVPSGWGRQLCPGHALLDEPLLPETGGHPVCERVGHPAPSGPPDLLGLAAGHVLCRVRHDTPVRIPGTGSGCVCTHPAVQWQADLLPHLTLWPNPGQGTVRTSVRNSGHTEEQQVGLS	soluble
MGSDKIHHHHHHMRHFIYQDEKSHKFRAVEQQGNELHISWGKVGTKGQSQIKSFSDAAAAAKAELKLIAEKVKKGYVEQAKDNSLQPSQTVTGSLKVADLSTIIQEQPSFVAETRAPDKNTDAVLPWLAKDIAVVFPPEVVHTTLSHRRFPGVPVQQADKLPQLRRLACSVSQRDNKTATFDFSACSLEWQNTVAQAISQIDGLKTTQLPSPVMAVLTALEMKCTRYKVREDVMDQIVQEGGLEYATDVIIHLQQIDIEWDYANNVIIILPSGIAPSYLEQYSRFE	not soluble
MQNHVISLASAAERRAHIAATFGVRGIPFQFFDALMPSEELNRMMAELVPGLAKQHLLSEVEKACFMSHAVLWKQALDEGLPYVAVFEDDVLLGKDAEKFLAEDTWLEERFDKDSAFIVRLETMFAKVIVRPDKVLNYENRSFPLLESEHWGTAGYIISREAMRFFLERFAVLPAEWIKAVDWMMFTYFFDKEGMPVYQVNPALCTQELHYAKFLSKNSMLGSDLEKDREQERRHRRSLKVMFDLKRALGKFGREKKKRMERQRQAELEKAYGRRVISFK	not soluble
MSDISIEMIKRIVEEVVKKFLSKKILVVFTGGKVNFDISLDELKKIKENSMVEYTLVFSRAASQIFNKKMISDQLESVEVIEEGEAINARECVQKHNMVIFATLTRNTASKISHLILDTLPTQIAINCVLSDVPIVAVRDAADLNVETWRELGFSNFPPALKNSYDKIFKDIESYGIELCNSFELAKKVLGYLNSNSFSIAEKINKEEKSKRENSYYNGAKNIRLEKKIITREDIIGLKGKIDTIEIAKDSIITPLAMDFIRDNQLKVIKT	not soluble
AIAYTFDTTDHKSPCCNFQWYIFRKQGESRIITCELFGVIVSLENRWDWLEFMIDDSLQLTAFRCPKRDKLGMETLLQLGDVAQVTGNWKLSNGAFLNATKIAIHNNPDVECKYWLQQIQKYKSKVCELEIPSDWIRRQQRAHNLKTDAVLSFSAQVSTAAATCWKLWKKHFNQGGKISLQRLWEVIQRENCPKMQELSSCRRNQIVQLLIHLGYLIPLSKEPETYVLLIDDILDKQVMQIFNQNIASKTLSLREVAYRLEEYFHVEEISLERVEESILRLAYKEKVEQV	soluble
MLKQPIQAQQLIELLKVHYGIDIHTAQFIQGGADTNAFAYQADSESKSYFIKLKYGYHDEINLSIIRLLHDSGIKEIIFPIHTLEAKLFQQLKHFKIIAYPFIHAPNGFTQNLTGKQWKQLGKVLRQIHETSVPISIQQQLRKEIYSPKWREIVRSFYNQIEFDNSDDKLTAAFKSFFNQNSAAIHRLVDTSEKLSKKIQPDLDKYVLCHSDIHAGNVLVGNEESIYIIDWDEPMLAPKERDLMFIGGGVGNVWNKPHEIQYFYEGYGEINVDKTILSYYRHERIVEDIAVYGQDLLSRNQNNQSRLESFKYFKEMFDPNNVVEIAFATEQLEHHHHHH	soluble
MGHHHHHHSHMPSLSTLRMRRCPSSLWIRFGYDPRKNPDAKIYQVLDFRIRCGMKHGYAPSDLPVKAKRSTYNYSLPITVKKTSSQLVTMHDLKQGLGPSGTSGARKPASSKYKLKVSLQTLRDSVYIFREGALPPYRQMFYQLCDLNVEELQKIIHRNDGAENSCTERDGWCLPKTSDELRDTMSLMIRQTIRSKRPALFSSSAKADGGKEQLTYESGEDEEDEEEEEEEEEDFKPSDGSENEMETEILDYV	not soluble
MERYPPIADHGLVGDLQTAALVSSQGVIDWFAAPRFDSPSIFASLLDHDGGGHFLLAPEHPEGTWRQLYYPDTGVVVTRFMSPDGVGEIIDYMPVLPGPTASDRHSLVRIVRSVRGTVRFRLVCRPRFDYLEHHHHHH	not soluble
MRCQPFCRNLAGFPQNSPAQSTTMTYTHGSALPSTDDVTIDADVATEELTGTAAFDAGVGDMPSWEELVAQHADSVYRLAFRLSGNQHDAEDLTQETFMRVFRSLKGYQPGTFEGWLHRITTNLFLDMVRHRAKIRMEALPEDYERVPGTDMTPEQAYNVSNLDPALQKALDDLSPDFRVAVVLCDVVGMSYDEIADTLGVKMGTVRSRIHRGRSQLRAHLENQATSDEGAQLLLATGR	not soluble
MPGINGAGPSNFFWQWRTDGEPVTEREHDSSRSASSANSPELPPPASPAESGRQRLLRSSALSRQTREWLEATPARVQGATPPAEARQSPEAQQAERIVQELVRGGADLNNVRTMLRNVMDNNAVAFSRVERDILLQHFPNMPMTGISSDSVLANELRQRLRQTVRQQRIQSSTPARLADSSSGSSQRSLIGRSTMLMTPGRSSSSSAAASRTSVDRHPQGLDLESARLASAARHNHSANQTNEALRRLTQEGVDMERLRTSLGRYIMSLEPLPPDLRRALESVGINPFIPEELSLVDHPVLNFSAALNRMLASRQTTTNSPELPPLASSAESGRRRLLRSPPLLSGQREWIEQSMRQEAEPQSSRLNRAVRLAVMPPQNENEDNVAYAIRLRRLNPGADVSRVVASFITDPAARQQVVNDIRAALDIAPQFSQLRTISKADAESEELGFRDAADHPDNATSCLFGEELSLSNPDQQVIGLAVNPTDKPQPYSQEVNKALTFMDMKKLAQYLADKPEHPLNRQRLDAKNIAKYAFKIVP	not soluble
MKQSTIALALLPLLFTPVTKAREVQLQQSGPELVKPGASVKMSCKASGYTFTSYVMHWVKQKPGQGLEWIGYINPYNDGTKYNEKFKGKATLTSDKSSSTAYMELSSLTSEDSAVYYCARGAYKRGYAMDYWGQGTSVTVSSRGGGGSGGGGSGGGGSDLVMSQSPSSLAVSAGEKVTMSCKSSQSLFNSRTRKNYLAWYQQKPGQSPKLLIYWASTRESGVPDRFTGSGSGTDFTLTISSVQAEDLAVYYCKQSYYHMYTFGSGTKLEIKHHHHHGLVPRGSGDPKADNK	soluble
MSLPFPTIPPIAGVEIATGRAGFYKHEREDLLLMRFAEGTSAAGVFTRHGVGSAPVDWCKRQLAATGGADVRALVVNAGCANSFTGKPGADAVRRVATAVGKRFDCRQRDVMMASTGVIGVILDDSKITARLPEVESRLKADAWAEAGRAIMTTDTFPKGAYATAVIDGHEVKIAGIAKGSGMIAPDMATMLAFVATDAAIAPAALQTLVSLYTRTTFNCVTVDGDRSTNDTLLLFATGQSGAPKIHRAGDKRLADFREKLEGVLLDLALQLVKDGEGATKFVKITVNGAESPASARKIARTIAESPLVKTAFAGEDANWGRIVMAVGRADEPVAREKISVKFGDLYAARDGLISAEYDEAKMSAYVKNQAFEVSVDVGVGRGSATVWTCDLTKQYVAINGDYRSEGHHHHHH	not soluble
MGHHHHHHSHKDDTDPGQLKGLSAHTHVELPYYSKFILIAAYLASYNPARTDKRFFLKHHGKIKKTNFLKKHEKTSNHLLGPKPFPLDRLLAILYSIVDSRVAPTANIFSQITSLVTLQLLTLVGHDDQLDGPKYKCTVSLDFIRAIARTVNFDIIKYLYDFL	not soluble
MLKLGHCGVEKQEVQKRIGLRVIELREHKGWSQSDLARACNKDRQAIEKIESGKVNPTIFSLYEIAIALGVSLSKVTGI	not soluble
